These are literature values, as cited in publication PMC11391413.

Like-named read-outs stand apart in the source and are kept apart here.

The target in data set [1] is SOS1 S10 PRM (Homo sapiens) (UniProt Q07889). The data set can be described thus: NMR.
The target of data set [2] is SOS1 S8 PRM (Homo sapiens) (UniProt Q07889). Nature of the data set: NMR.
Data set [3] deals with SOS1 S4 PRM (Homo sapiens). The data set can be described thus: NMR.
The target in data set [4] is SOS1 S2 (Homo sapiens).
The target in data set [5] is SOS1 S4 (Homo sapiens).
Data set [6] addresses SOS1 S7 PRM (Homo sapiens) (UniProt Q07889). The data set can be described thus: NMR.
Data set [7] concerns the target SOS1 S4 (Homo sapiens). The source holds these as a separate data set.
Data set [8] deals with SOS1 S2 (Homo sapiens). This is another data set of the same source.

GRB2 NSH3, sequence (P62993 1-58): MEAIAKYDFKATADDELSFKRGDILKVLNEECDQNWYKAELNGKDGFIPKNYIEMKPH
GRB2 CSH3, sequence (P62993 156-215): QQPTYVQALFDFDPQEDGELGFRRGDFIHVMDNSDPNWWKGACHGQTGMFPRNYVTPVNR

As for GRB2 CSH3 (from UniProt P62993), the dissociation constant Kd was 131 µM in data set [1]; 400 µM in [2]; 142 µM in data set [3]; 440 µM in the data set with SOS1 S2 (Homo sapiens) [4]; 142 µM with SOS1 S4 (Homo sapiens) [5].

Consider GRB2 NSH3 (from UniProt P62993), for which the Kd in data set [1] was 71.5 µM; in data set [6], 580 µM; in [2], 208 µM; in data set [3], 37 µM; in the data set with SOS1 S1 (Homo sapiens), 730 µM; with SOS1 S4 (Homo sapiens) [7] it was 37 µM. For the same substance, the dissociation constant (Kd) with SOS1 S2 (Homo sapiens) [8] is 250 µM.
